Measured values taken from the supplement of paper PMC5998384.

What was measured:
[1] = system: HeLa Kyoto; test: melting temperature (median over replicates), in situ; higher = more thermally stable
[2] = system: HeLa Kyoto; test: solubility change mitosis vs G1/S (difference of NP-40 vs SDS log2 ratios) (log2 ratio difference); higher = more soluble in mitosis
[3] = system: HeLa Kyoto; test: solubility in G1/S (NP-40 vs SDS abundance) (log2 ratio); higher = more soluble; conditions: cell cycle stage: G1/S
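Throughout, for melting temperature (median over replicates), in situ: HeLa Kyoto cells synchronized by double thymidine or nocodazole block, proteins quantified by TMT10plex mass spectrometry, three independent biological replicates.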
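Throughout, for solubility change mitosis vs G1/S (difference of NP-40 vs SDS log2 ratios): synchronized HeLa Kyoto cells (double thymidine block for G1/S, nocodazole release for mitosis), protein amounts in NP-40 versus SDS lysates quantified by mass spectrometry, three biological replicates.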
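Throughout, for solubility in G1/S (NP-40 vs SDS abundance): HeLa Kyoto cells arrested at G1/S by double thymidine block, proteins quantified by TMT10plex mass spectrometry in mild NP-40 versus SDS extracts, three biological replicates.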

WWC2, sequence (chain, as listed by the source): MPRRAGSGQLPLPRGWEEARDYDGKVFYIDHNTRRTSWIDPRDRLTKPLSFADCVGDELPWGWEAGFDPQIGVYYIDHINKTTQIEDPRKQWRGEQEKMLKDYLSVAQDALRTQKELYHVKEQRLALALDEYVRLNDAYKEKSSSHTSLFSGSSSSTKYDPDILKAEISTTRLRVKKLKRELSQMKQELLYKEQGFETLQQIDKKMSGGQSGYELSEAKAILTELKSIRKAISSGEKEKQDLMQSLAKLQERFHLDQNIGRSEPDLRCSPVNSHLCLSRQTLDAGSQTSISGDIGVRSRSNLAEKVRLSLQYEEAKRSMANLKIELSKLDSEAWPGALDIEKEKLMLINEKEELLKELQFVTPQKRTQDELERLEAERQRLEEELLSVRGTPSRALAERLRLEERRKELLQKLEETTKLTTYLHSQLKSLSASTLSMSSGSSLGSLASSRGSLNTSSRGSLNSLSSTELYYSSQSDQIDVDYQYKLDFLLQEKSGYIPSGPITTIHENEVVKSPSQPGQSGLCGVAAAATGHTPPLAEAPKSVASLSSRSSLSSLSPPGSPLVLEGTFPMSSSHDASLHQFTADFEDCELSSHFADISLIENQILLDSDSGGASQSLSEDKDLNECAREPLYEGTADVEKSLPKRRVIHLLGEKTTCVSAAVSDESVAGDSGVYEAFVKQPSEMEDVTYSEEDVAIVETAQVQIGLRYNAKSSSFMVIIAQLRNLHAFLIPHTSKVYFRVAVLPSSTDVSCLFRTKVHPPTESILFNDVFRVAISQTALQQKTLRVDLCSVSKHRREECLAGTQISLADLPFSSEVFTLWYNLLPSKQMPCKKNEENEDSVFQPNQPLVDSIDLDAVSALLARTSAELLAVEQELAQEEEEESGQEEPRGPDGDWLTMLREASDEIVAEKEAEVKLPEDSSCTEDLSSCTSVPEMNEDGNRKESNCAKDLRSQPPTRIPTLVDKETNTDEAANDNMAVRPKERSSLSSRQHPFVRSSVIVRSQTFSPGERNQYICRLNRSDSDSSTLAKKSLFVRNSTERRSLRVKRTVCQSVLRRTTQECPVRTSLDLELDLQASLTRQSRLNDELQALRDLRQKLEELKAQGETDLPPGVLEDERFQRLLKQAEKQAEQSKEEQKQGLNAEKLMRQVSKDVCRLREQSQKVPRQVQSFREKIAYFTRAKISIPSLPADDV

| Substance | melting temperature ([1]; cell cycle stage: G1/S) [°C] | melting temperature ([1]; cell cycle stage: mitosis) [°C] | solubility change mitosis (log2) [2] | solubility in G1/S (log2) [3] |
| --- | --- | --- | --- | --- |
| MGDEDDDESCAVELRITEANLTGHEEKVSVENFELLKVLGTGAYGKVFLVRKAGGHDAGKLYAMKVLRKAALVQRAKTQEHTRTERSVLELVRQAPFLVTLHYAFQTDAKLHLILDYVSGGEMFTHLYQRQYFKEAEVRVYGGEIVLALEHLHKLGIIYRDLKLENVLLDSEGHIVLTDFGLSKEFLTEEKERTFSFCGTIEYMAPEIIRSKTGHGKAVDWWSLGILLFELLTGASPFTLEGERNTQAEVSRRILKCSPPFPPRIGPVAQDLLQRLLCKDPKKRLGAGPQGAQEVRNHPFFQGLDWVALAARKIPAPFRPQIRSELDVGNFAEEFTRLEPVYSPPGSPPPGDPRIFQGYSFVAPSILFDHNNAVMTDGLEAPGAGDRPGRAAVARSAMMQDSPFFQQYELDLREPALGQGSFSVCRRCRQRQSGQEFAVKILSRRLEANTQREVAALRLCQSHPNVVNLHEVHHDQLHTYLVLELLRGGELLEHIRKKRHFSESEASQILRSLVSAVSFMHEEAGVVHRDLKPENILYADDTPGAPVKIIDFGFARLRPQSPGVPMQTPCFTLQYAAPELLAQQGYDESCDLWSLGVILYMMLSGQVPFQGASGQGGQSQAAEIMCKIREGRFSLDGEAWQGVSEEAKELVRGLLTVDPAKRLKLEGLRGSSWLQDGSARSSPPLRTPDVLESSGPAVRSGLNATFMAFNRGKREGFFLKSVENAPLAKRRKQKLRSATASRRGSPAPANPGRAPVASKGAPRRANGPLPPS [RPS6KA4] | 46.6 | 49.5 | -0.0849 | -0.0622 |
| MSRLIVKNLPNGMKEERFRQLFAAFGTLTDCSLKFTKDGKFRKFGFIGFKSEEEAQKAQKHFNKSFIDTSRITVEFCKSFGDPAKPRAWSKHAQKPSQPKQPPKDSTTPEIKKDEKKKKVAGQLEKLKEDTEFQEFLSVHQRRAQAATWANDGLDAEPSKGKSKPASDYLNFDSDSGQESEEEGAGEDLEEEASLEPKAAVQKELSDMDYLKSKMVKAGSSSSSEEEESEDEAVHCDEGSEAEEEDSSATPVLQERDSKGAGQEQGMPAGKKRPPEARAETEKPANQKEPTTCHTVKLRGAPFNVTEKNVMEFLAPLKPVAIRIVRNAHGNKTGYIFVDFSNEEEVKQALKCNREYMGGRYIEVFREKNVPTTKGAPKNTTKSWQGRILGENEEEEDLAESGRLFVRNLPYTSTEEDLEKLFSKYGPLSELHYPIDSLTKKPKGFAFITFMFPEHAVKAYSEVDGQVFQGRMLHVLPSTIKKEASEDASALGSSSYKKKKEAQDKANSASSHNWNTLFMGPNAVADAIAQKYNATKSQVFDHETKGSVAVRVALGETQLVQEVRRFLIDNGVSLDSFSQAAAERSKTVILVKNLPAGTLAAQLQETFGHFGSLGRVLLPEGGITAIVEFLEPLEARKAFRHLAYSKFHHVPLYLEWAPVGVFSSTAPQKKKLQDTPSEPMEKDPAEPETVPDGETPEDENPTEEGADNSSAKMEEEEEEEEEEEESLPGCTLFIKNLNFDTTEEKLKEVFSKVGTVKSCSISKKKNKAGVLLSMGFGFVEYRKPEQAQKALKQLQGHVVDGHKLEVRISERATKPAVTLARKKQVPRKQTTSKILVRNIPFQAHSREIRELFSTFGELKTVRLPKKMTGTGTHRGFGFVDFLTKQDAKRAFNALCHSTHLYGRRLVLEWADSEVTLQALRRKTAAHFHEPPKKKRSVVLDEILEQLEGSDSDSEEQTLQL [RBM19] | 48.5 | 51.2 | 0.706 | -1.27 |
| MAGVSYAAPWWVSLLHRLPHFDLSWEATSSQFRPEDTDYQQALLLLGAAALACLALDLLFLLFYSFWLCCRRRKSEEHLDADCCCTAWCVIIATLVCSAGIAVGFYGNGETSDGIHRATYSLRHANRTVAGVQDRVWDTAVGLNHTAEPSLQTLERQLAGRPEPLRAVQRLQGLLETLLGYTAAIPFWRNTAVSLEVLAEQVDLYDWYRWLGYLGLLLLDVIICLLVLVGLIRSSKGILVGVCLLGVLALVISWGALGLELAVSVGSSDFCVDPDAYVTKMVEEYSVLSGDILQYYLACSPRAANPFQQKLSGSHKALVEMQDVVAELLRTVPWEQPATKDPLLRVQEVLNGTEVNLQHLTALVDCRSLHLDYVQALTGFCYDGVEGLIYLALFSFVTALMFSSIVCSVPHTWQQKRGPDEDGEEEAAPGPRQAHDSLYRVHMPSLYSCGSSYGSETSIPAAAHTVSNAPVTEYMSQNANFQNPRCENTPLIGRESPPPSYTSSMRAKYLATSQPRPDSSGSH [TTYH3] | 55.3 | 56.1 | -0.146 | 0.256 |
| MDVSGQETDWRSTAFRQKLVSQIEDAMRKAGVAHSKSSKDMESHVFLKAKTRDEYLSLVARLIIHFRDIHNKKSQASVSDPMNALQSLTGGPAAGAAGIGMPPRGPGQSLGGMGSLGAMGQPMSLSGQPPPGTSGMAPHSMAVVSTATPQTQLQLQQVALQQQQQQQQFQQQQQAALQQQQQQQQQQQFQAQQSAMQQQFQAVVQQQQQLQQQQQQQQHLIKLHHQNQQQIQQQQQQLQRIAQLQLQQQQQQQQQQQQQQQQALQAQPPIQQPPMQQPQPPPSQALPQQLQQMHHTQHHQPPPQPQQPPVAQNQPSQLPPQSQTQPLVSQAQALPGQMLYTQPPLKFVRAPMVVQQPPVQPQVQQQQTAVQTAQAAQMVAPGVQMITEALAQGGMHIRARFPPTTAVSAIPSSSIPLGRQPMAQVSQSSLPMLSSPSPGQQVQTPQSMPPPPQPSPQPGQPSSQPNSNVSSGPAPSPSSFLPSPSPQPSQSPVTARTPQNFSVPSPGPLNTPVNPSSVMSPAGSSQAEEQQYLDKLKQLSKYIEPLRRMINKIDKNEDRKKDLSKMKSLLDILTDPSKRCPLKTLQKCEIALEKLKNDMAVPTPPPPPVPPTKQQYLCQPLLDAVLANIRSPVFNHSLYRTFVPAMTAIHGPPITAPVVCTRKRRLEDDERQSIPSVLQGEVARLDPKFLVNLDPSHCSNNGTVHLICKLDDKDLPSVPPLELSVPADYPAQSPLWIDRQWQYDANPFLQSVHRCMTSRLLQLPDKHSVTALLNTWAQSVHQACLSAA [MED15] |  | 51.3 | 0.147 | 0.144 |
| MAHAGGGSGGSGAGGPAGRGLSGARWGRSGSAGHEKLPVHVEDALTYLDQVKIRFGSDPATYNGFLEIMKEFKSQSIDTPGVIRRVSQLFHEHPDLIVGFNAFLPLGYRIDIPKNGKLNIQSPLTSQENSHNHGDGAEDFKQQVPYKEDKPQVPLESDSVEFNNAISYVNKIKTRFLDHPEIYRSFLEILHTYQKEQLNTRGRPFRGMSEEEVFTEVANLFRGQEDLLSEFGQFLPEAKRSLFTGNGPCEMHSVQKNEHDKTPEHSRKRSRPSLLRPVSAPAKKKMKLRGTKDLSIAAVGKYGTLQEFSFFDKVRRVLKSQEVYENFLRCIALFNQELVSGSELLQLVSPFLGKFPELFAQFKSFLGVKELSFAPPMSDRSGDGISREIDYASCKRIGSSYRALPKTYQQPKCSGRTAICKELDHWTLLQGSWTDDYCMSKFKNTCWIPGYSAGVLNDTWVSFPSWSEDSTFVSSKKTPYEEQLHRCEDERFELDVVLETNLATIRVLESVQKKLSRMAPEDQEKFRLDDSLGGTSEVIQRRAIYRIYGDKAPEIIESLKKNPVTAVPVVLKRLKAKEEEWREAQQGFNKIWREQYEKAYLKSLDHQAVNFKQNDTKALRSKSLLNEIESVYDEHQEQHSEGRSAPSSEPHLIFVYEDRQILEDAAALISYYVKRQPAIQKEDQGTIHQLLHQFVPSLFFSQQLDLGASEESADEDRDSPQGQTTDPSERKKPAPGPHSSPPEEKGAFGDAPATEQPPLPPPAPHKPLDDVYSLFFANNNWYFFLRLHQTLCSRLLKIYRQAQKQLLEYRTEKEREKLLCEGRREKGSDPAMELRLKQPSEVELEEYYPAFLDMVRSLLEGSIDPTQYEDTLREMFTIHAYVGFTMDKLVQNIARQLHHLVSDDVCLKVVELYLNEKKRGAAGGNLSSRCVRAARETSYQWKAERCMADENCFKVMFLQRKGQVIMTIELLDTEEAQTEDPVEVQHLARYVEQYVGTEGASSSPTEGFLLKPVFLQRNLKKFRRRWQSEQARALRGEARSSWKRLVGVESACDVDCRFKLSTHKMVFIVNSEDYMYRRGTLCRAKQVQPLVLLRHHQHFEEWHSRWLEDNVTVEAASLVQDWLMGEEDEDMVPCKTLCETVHVHGLPVTRYRVQYSRRPASP [SIN3B] | 47.9 | 49.3 | 0.0177 | -0.231 |
| MATGDLKRSLRNLEQVLRLLNYPEEVDCVGLIKGDPAASLPIISYSFTSYSPYVTELIMESNVELIAKNDLRFIDAVYKLLRDQFNYKPILTKKQFIQCGFAEWKIQIVCDILNCVMKKHKELSSLQKIPSQQRKKISSGKSEPPLGNEKISAEAVGVDISGRFMTSGKKKAVVIRHLYNEDNVDISEDTLSPITDVNEAVDVSDLNATEIKMPEVKVPEIKAEQQDVNVNPEITALQTMLAECQENLKKLTSIEKRLDCLEQKMKGKVMVDENTWTNLLSRVTLLETEMLLSKKNDEFIEFNEVSEDYASCSDMDLLNPHRKSEVERPASIPLSSGYSTASSDSTPRASTVNYCGLNEISEETTIQKMERMKKMFEETAELLKCPNHYL [CEP44] | 48.6 | 49.3 | -0.26 | 0.259 |
| MEAEETMECLQEFPEHHKMILDRLNEQREQDRFTDITLIVDGHHFKAHKAVLAACSKFFYKFFQEFTQEPLVEIEGVSKMAFRHLIEFTYTAKLMIQGEEEANDVWKAAEFLQMLEAIKALEVRNKENSAPLEENTTGKNEAKKRKIAETSNVITESLPSAESEPVEIEVEIAEGTIEVEDEGIETLEEVASAKQSVKYIQSTGSSDDSALALLADITSKYRQGDRKGQIKEDGCPSDPTSKQVEGIEIVELQLSHVKDLFHCEKCNRSFKLFYHFKEHMKSHSTESFKCEICNKRYLRESAWKQHLNCYHLEEGGVSKKQRTGKKIHVCQYCEKQFDHFGHFKEHLRKHTGEKPFECPNCHERFARNSTLKCHLTACQTGVGAKKGRKKLYECQVCNSVFNSWDQFKDHLVIHTGDKPNHCTLCDLWFMQGNELRRHLSDAHNISERLVTEEVLSVETRVQTEPVTSMTIIEQVGKVHVLPLLQVQVDSAQVTVEQVHPDLLQDSQVHDSHMSELPEQVQVSYLEVGRIQTEEGTEVHVEELHVERVNQMPVEVQTELLEADLDHVTPEIMNQEERESSQADAAEAAREDHEDAEDLETKPTVDSEAEKAENEDRTALPVLE [ZNF131] | 46.6 |  | -0.0242 | -0.231 |
| PHLPP1 | 51.7 | 51.2 | -0.0508 | 0.00518 |
| MSYYLSSENHLDPGPIYMRENGQLHMVNLALDGVRSSLQKPRPFRLFPKGFSVELCMNREDDTARKEKTDHFIFTYTREGNLRYSAKSLFSLVLGFISDNVDHIDSLIGFPEQIAEKLFSAAEARQKFTEPGAGLRALQKFTEAYGSLVLCSLCLRNRYLVISEKLEEIKSFRELTCLDLSCCKLGDEHELLEHLTNEALSSVTQLHLKDNCLSDAGVRKMTAPVRVMKRGLENLTLLDLSCNPEITDAGIGYLFSFRKLNCLDISGTGLKDIKTVKHKLQTHIGLVHSKVPLKEFDHSNCKTEGWADQIVLQWERVTAEAVKPRETSEPRAAAQRFYGKRSRAEAPLKCPLADTHMNSSEKLQFYKEKAPDCHGPVLKHEAISSQESKKSKKRPFEESETEQNNSSQPSKQKYVCLAVEDWDLLNSY [LRRC42] | 49 | 50.9 | -0.111 | -0.0147 |
| CRYBG3 | 51.3 | 50.4 | -0.00814 | -0.18 |
| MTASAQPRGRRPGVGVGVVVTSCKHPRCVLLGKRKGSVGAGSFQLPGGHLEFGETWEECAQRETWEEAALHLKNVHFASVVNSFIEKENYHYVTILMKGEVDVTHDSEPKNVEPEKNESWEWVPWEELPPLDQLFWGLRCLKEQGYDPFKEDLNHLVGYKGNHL [NUDT15] | 53.4 | 52.3 | -0.3 | 0.425 |
| WWC2 | 51.1 | 49.9 | -0.0226 | -0.102 |
